Results published in patent publication US20110229525A1 (VANDERBILT UNIVERSITY, published 2011).

Target: JAK2 (UniProt Q62120 1-1132)
Assay: cell-based or functional assay

Chain of JAK2 (Q62120 whole entry): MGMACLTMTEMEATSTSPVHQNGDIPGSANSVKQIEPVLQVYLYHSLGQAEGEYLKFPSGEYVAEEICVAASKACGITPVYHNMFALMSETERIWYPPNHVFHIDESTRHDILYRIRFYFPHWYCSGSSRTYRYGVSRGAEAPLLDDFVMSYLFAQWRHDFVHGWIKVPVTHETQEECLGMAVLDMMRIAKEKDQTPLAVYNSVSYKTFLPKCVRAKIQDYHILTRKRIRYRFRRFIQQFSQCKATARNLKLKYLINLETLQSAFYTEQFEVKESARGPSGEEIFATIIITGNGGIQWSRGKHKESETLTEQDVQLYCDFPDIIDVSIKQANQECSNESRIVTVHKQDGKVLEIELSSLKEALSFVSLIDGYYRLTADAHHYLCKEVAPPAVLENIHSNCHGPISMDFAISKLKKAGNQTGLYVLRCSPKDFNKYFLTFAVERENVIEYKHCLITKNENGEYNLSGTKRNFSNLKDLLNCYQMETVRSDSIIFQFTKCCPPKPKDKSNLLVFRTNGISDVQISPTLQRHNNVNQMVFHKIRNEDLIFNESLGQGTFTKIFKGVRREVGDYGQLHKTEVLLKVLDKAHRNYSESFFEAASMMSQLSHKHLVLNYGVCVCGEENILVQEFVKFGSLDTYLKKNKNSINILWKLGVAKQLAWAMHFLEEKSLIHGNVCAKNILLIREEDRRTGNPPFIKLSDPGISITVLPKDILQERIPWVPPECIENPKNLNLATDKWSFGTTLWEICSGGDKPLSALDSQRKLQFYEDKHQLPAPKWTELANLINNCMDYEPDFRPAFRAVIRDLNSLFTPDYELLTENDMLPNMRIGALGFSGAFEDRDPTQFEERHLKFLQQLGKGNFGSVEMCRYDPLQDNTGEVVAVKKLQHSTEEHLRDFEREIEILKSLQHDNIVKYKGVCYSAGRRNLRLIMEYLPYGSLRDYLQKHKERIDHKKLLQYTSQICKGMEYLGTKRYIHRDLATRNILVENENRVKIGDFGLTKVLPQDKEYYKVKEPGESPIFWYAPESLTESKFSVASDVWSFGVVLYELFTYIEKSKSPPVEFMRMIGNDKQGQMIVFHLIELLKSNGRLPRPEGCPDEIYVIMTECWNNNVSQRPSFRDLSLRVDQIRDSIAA

- concentration of CP-SOCS1 that inhibited phosphorylation of STAT1 by 50% (IC50), AMJ2.C8 macrophages stimulated with IFN-g and LPS: < 1.9 mM
B1: CP-SOCS1 (recombinant cell-penetrating murine SOCS1 with MTM and 6x histidine tag) (other, human;murine, UniProt P08620 7-22, looked up, not shown: small tags and cut ends)
chain: AAVALLPAVLLALLAPMVARNQVAADNAISPAAEPRRRSEPSSSSSSSSPAAPVRPRPCPAVPAPAPGDTHFRTFRSHSDYRRITRTSALLDACGFYWGPLSVHGAHERLRAEPVGTFLVRDSRQRNCFFALSVKMASGPTSIRVHFQAGRFHLDGSRETFDCLFELLEHYVAAPRRMLGAPLRQRRVRPLQELCRQRIVAAVGRENLARIPLNPVLRDYLSSFPFQI
